The data set can be described thus: soluble on expression in E. coli; label from the status in PepcDB or PDB records.
With “SFRFMRDVEPEDPMFLMDPFAIHRQHMSRMLSGGFGYSPFLSITDGNMPGTRPASRRMQQAGAVSPFGMLGMSGGFMDMFGMMNDMIGNMEHMTAGGNCQTFSSSTVISYSNTGDGAPKVYQETSEMRSAPGGIRETRRTVRDSDSGLEQMSIGHHIRDRAHILQRSRNHRTGDQEERQDYINLDESEAAAFDDEWRRETSRFRQQRPLEFRRLESSGAGGRRAEGPPRLAIQGPEDSPSRQSRRYDW”, the “soluble on expression in E. coli” value is reported as “soluble”.
For “MADLRLEREFAVAPEALFAWVSDGAKLLQWWGPEGLHVPADQHDLDFTRLGPWFSVMVNGEGQRYKVSGQVTHVKPPQSVGFTWGWHDDDDRRGAESHVMFIVEPCAKGARLILDHRELGDDEMSLRHEEGWTSSLRKLAAELALEHHHHHH”, the “soluble on expression in E. coli” value was “soluble”.
Then “MGSSHHHHHHGGTGENLYFQGGSGPSSVAYVLGTESCGKTDLVHQLEYLTLGLVRTVPTACTPTTGQEVTKLNICSPAGKGKVTVEVRELGGSLVNTWESFIESRKARDGGSGDTSFLLIYVVDGVAPHQLPLASTMFRYLTQGRHAPCAGWPTLITVQKCASVNAITAEEVRSFFLDEVEAPANVDVVEVDSWNGIGTGDVLKGIEAVFGGLQ”, with “not soluble”; and “MQKEKLSALMDGETLDSELLKALTHDPEMQKTWESYHLIRDSMRGDTPDVLHFDISARVMAAIENEPVRQVSPLIPEAQPAPQQWQKMPFWKKVRPWAAQLTQMGVAACVSLAVIVGVQHYNGQSETSQQPETPVFNTLPMMGKASPVSLGVPSEAAPVGSQQQQVQEQRRRINAMLQDYELQRRLHSEQLQFEQAQTQQAAVQVPGIQTLGTQSQ”, with “not soluble”; and “MGSDKIHHHHHHENLYFQGMTKAIQSSVQVGELATGQALTVPIYSFMGSENSAPSVYIQANVHGAEVQGNAVIYQLMTLLEGYQVLGDITLAPLANPLGINQKSGEFTLGRFDPITGVNWNREYFDHNVDIQNWYAEHQHLTNSELFCAYRSMLVETCQARLTHSFGISTGHRLAVNLQAMAHQADIVLDLHTGPKSCKHLYCPEYDIDAARFFSIPYTLIIPNSFGGAMDEATFCPWWQLTEYATSQGREFSVPVSAFTLELASQERIDLADALEDAKGILAYLSHRGVIAEKVNPASMERFGCYLKDYKKFHAPKAGLIEYCASVGEPLTAGKPLVNILRIDLYGSEQAYQAISLPMDCVPILHFASASVLQGTELYKVMTNVFPLQPS”, with “soluble”.
In the case of “MGSDKIHHHHHHMREIMSIITLPRKIYQQRDIIDNIRETLQLKEPILLVSDRNIMKLYGQRIKNALDGSDYRVIEDVRPEPEVSDIENTYRSLSGFQPKTIIAFGGGSVIDFAKSIDVKISYPDRSLEEVNPFEPLNLKADLVAIPTTSGTGSDVSFGIVITDQGRKLALGNFDLVPYVSVLDSSLVPSDPSIIRPTGVDALVHSFEALTANTSSIFTDALAEKAIETIFGILIDPMKGEEDARENMHLAATMAGISFTNSGTALAHALGHSFGSTHHVVHGTCVGLFLPYVIEFNSSDENASEKYARIARRLGYKDAISALRDLYRRIGQPLTVAEIGIPKDAYMKSLDSMVEKALADSELAFNPVIAGDEDVRSIYIKAYGD” it was “not soluble”; in that of “MSDQQQPPVYKIALGIEYDGSKYYGWQRQNEVRSVQEKLEKALSQVANEPITVFCAGRTDAGVHGTGQVVHFETTAQRKDAAWTLGVNANLPGDIAVRWVKAVPDDFHARFSATARRYRYIIYNHRLRPAVLSKGVTHFYEPLDAERMHRAAQCLLGENDFTSFRAVQCQSRTPWRNVMHINVTRHGPYVVVDIKANAFVHHMVRNIVGSLMEVGAHNQPESWIAELLAAKDRTLAAATAKAEGLYLVAVDYPDRYDLPKPPMGPLFLAD”, “soluble”.
With “MYDVTIIGAGVSSIFMAYSLAKSNKKVLILDKGKALEDRHCPLDEGKVCNCTTCDKYFGFGGLGKSEGKFNYTNGFGGELEKKVGKEGFLQLMAEVDEILCQFGGSSVSKYSTENSSLTKRAEACGLQMLTTEVRHLGTTLSSNIFQQLYEFLLTKIKIQFHIDVQHILKQEDHFTIDTNQGTVQTKQLVFATGRSGADWLKEMCSSLNISQEQTRVDLGIRVEMKEHQLRSILKDTFETKLSYQGEHFTATTYCMNPKGRIIRKYEEGLVMPDGQNFREQGTGTSNLNFTLFIPSYFPTLKEANVYASSIIKGINQGRDRIVIQRLEDLLKKQPTAENSMEHSRIQPTLQGDYGDLNQEIPQLYIEGLKEFLLRLEQFIQEPIDQHTLLYGIDGKFYAPTIKINNHFETSIHGLFLIGDCSGVTHSLSQAAASGLYVGKYLSDILEHHHHHH”, the “soluble on expression in E. coli” value was “soluble”.

Values taken from the DeepSol protein solubility set.
